# T1: sulfated hirudin fragment 54-65 (HirF) (UniProt P01050 P01050:54-65, not fully specified)
# T1 chain: GDFEEIPEEYLQ
# How the values were obtained:
# [1] = molecular target: T2, alpha-thrombin (Homo sapiens, UniProt P00734;P00734 P00734:328-363,P00734:364-622); assay: FRET quenching slightly larger than FQ-15Ap; Exosite II; not displaced by HirF or AHT
# [2] = molecular target: antithrombin III (AT3) (Homo sapiens, UniProt P01008 P01008:33-464); assay: FRET control without thrombin, no fluorescence change; details: tags: Haematologic Technologies Inc; label: 5'-6-FAM, 3'-Dabcyl; G4
# antithrombin III (AT3), sequence (P01008 33-464, one chain of several): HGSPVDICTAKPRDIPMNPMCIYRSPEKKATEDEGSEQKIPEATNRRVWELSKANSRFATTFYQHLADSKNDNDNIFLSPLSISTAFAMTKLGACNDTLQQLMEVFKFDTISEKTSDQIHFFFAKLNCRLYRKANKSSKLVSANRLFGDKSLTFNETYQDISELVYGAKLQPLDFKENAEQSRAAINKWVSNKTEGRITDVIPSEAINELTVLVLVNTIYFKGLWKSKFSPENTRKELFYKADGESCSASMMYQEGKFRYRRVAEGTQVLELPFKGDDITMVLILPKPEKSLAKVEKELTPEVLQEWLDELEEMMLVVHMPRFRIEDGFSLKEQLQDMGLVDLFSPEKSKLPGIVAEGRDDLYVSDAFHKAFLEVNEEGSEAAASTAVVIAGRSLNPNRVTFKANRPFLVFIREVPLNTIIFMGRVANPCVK
# [3] = molecular target: T1, sulfated hirudin fragment 54-65 (HirF); assay: as above; details: tags: Sigma-Aldrich; peptide with sulfated Tyr; label: 5'-6-FAM, 3'-Dabcyl; G4
# [4] = molecular target: T2, alpha-thrombin; assay: FP; anisotropy increased more than 30% at 1:1; 20 mM Tris-HCl pH 7.6, 50 mM NaCl, 5% glycerol
# [5] = molecular target: T2, alpha-thrombin; assay: FP; anisotropy bait complex; slowly displaced by AT3
binder,measurement,setting,value
ACCCGTGGTAGGGTAGGATGGGGTGGT (ssDNA) [FQ-27Ap],binding result,[1],binds
GGTTGGTGTGGTTGG (ssDNA) [FQ-15Ap],binding result,[2],no binding
same,binding result,[3],no binding
GGTTGGTGTGGTTGG (ssDNA) [T-15Ap],binding result,[4],binds
ACCCGTGGTAGGGTAGGATGGGGTGGT (ssDNA) [T-27Ap],binding result,[5],binds

# From US20090208936, “IDENTIFICATION OF MOLECULAR INTERACTIONS AND THERAPEUTIC USES THEREOF” (Univeristy of Florida Research Foundations Inc., published 2009)
